# According to patent publication US7563585B2, “Methods of assaying compounds that modulate IL-4 receptor-mediated IgE synthesis utilizing a thioredoxin-like 32 kDa protein (TXNL)” (Rigel Pharmaceuticals, Inc., priority 2002, dated 2009):
# Legend:
# [1] = tested on: IL-4 induced germline ε transcription (ε promoter reporter in A5T4 cells); experiment: Re-infection assay in naïve A5T4 cells (BFP− vs BFP+ populations, FACS of GFP); assay type: cell-based, human; settings: A5T4 reporter line
# Experimental: The ability of peptide DR15wt (SEQ ID NO:1) to inhibit germline ε transcription was confirmed in naïve cells. Briefly, Phoenix cells were transfected with a retroviral vector encoding a BFP-DR15wt (SEQ ID NO:1) peptide fusion as described in WO 99/58663 and WO 97/27213. Naïve A5T4 cells were infected with the resultant virions and grown for 3 days. The infected cells were stimulated with IL-4 (60 U/mL) and, after 3 days, the cells were assessed by FACS for BFP and GFP. […] The BFP fluorescence data corresponding to the BFP^+ and BFP^− populations are provided in Panel A. The GFP fluorescence data corresponding to the BFP^+ and BFP^− populations are presented in Panel B. The reporter ratio for this purpose is determined as the geometric mean of the GFP fluorescence of the BFP^− population divided by the geometric mean of the GFP fluorescence of the BFP^+ population. The reporter ratio for the DR15 in this re-infection assay was 1.69.
# A collection of DR15 mutants was generated by replacing double amino acid residues in the sequence of DR15wt (SEQ ID NO:1) with a different amino acid, typically an alanine, as described in copending application Ser. No. 10/095,659. The functional profiles for the mutants derived from DR15wt (SEQ ID NO:1) was obtained by constructing and screening for activity in the A5T4 reporter cell line in the manner described above. […]
# [2] = molecular target: T1, human thioredoxin-like 32 kDa protein (hTXNL) (Homo sapiens, UniProt O43396); experiment: β-galactosidase yeast two hybrid (YTH) interaction assay; assay type: binding
# T1 construct: expressed in transfected cells; prey cDNA from a library of the A5T4 reporter line (derived from BJAB B-cells)
# T1 sequence (O43396 1-289): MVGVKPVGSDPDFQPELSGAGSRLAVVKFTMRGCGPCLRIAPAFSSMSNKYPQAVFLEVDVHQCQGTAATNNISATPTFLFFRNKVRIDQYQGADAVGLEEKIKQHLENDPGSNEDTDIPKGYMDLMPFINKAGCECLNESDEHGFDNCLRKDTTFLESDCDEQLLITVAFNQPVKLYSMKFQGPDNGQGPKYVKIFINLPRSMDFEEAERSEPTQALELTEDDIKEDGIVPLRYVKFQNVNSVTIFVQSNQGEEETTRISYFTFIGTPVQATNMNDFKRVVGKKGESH
# Experimental: Potential binding partners for peptide DR15wt were identified in a β-galactosidase yeast two-hybrid (YTH) assay using peptide DR15wt as bait and a cDNA library constructed from the A5T4 reporter cell line as prey. Binding was assessed by β-galactosidase quantification using BetaFluor (Novagen) as a substrate. A negative interaction control (no cDNA fused downstream of the GAL4 activation domain sequence) was also run. A general outline of the YTH assay is illustrated in FIG. 5A. Following clustering, filtering to remove non-specific bait hits (e.g., GFP and BFP), singletons and clusters recognized by 10 or more cDNA baits (based upon historical YTH assays), and prioritization, 10 prey clones were identified as hits.
# Potential targets identified in the YTH assay were reconfirmed as generally outlined in FIG. 6. The cDNA clones identified as hits in the YTH assay were purified and rescreened for interaction with the DR15wt (SEQ ID NO:1) peptide in a YTH assay. The hit clones were also screened in a control assay for interaction with the BFP using a vector (pGBKT7) that contained only the BFP and not the DR15 peptide. At this stage, 8 putative target clones remained.
# The interaction of DR15wt (SEQ ID NO:1) peptide and its mutants with the clones identified as potential targets for the peptide DR15wt (SEQ ID NO:1) was then quantified in a galactosidase YTH assay. The YTH assay was performed in the manner described above. A general outline of this YTH assay is illustrated in FIG. 5B. For each clone tested, an interaction profile was developed by comparing the β-galactosidase activity of each mutant to that of the wild type peptide as described above.
# The interaction of these IOF and ROF mutants with different polypeptides encoded by the putative target clones were quantified using the YTH assay described above. Based on the YTH assay, for each putative target, a subset of the mutants representing each of the above functional categories, when available, were categorized into the following four interaction categories: (1) reduction of interaction (ROI); (2) loss of interaction (LOT); (3) increase of interaction (101); and (4) interactionally neutral (N), by assessing the binding affinity ratio of the mutant peptide and the wild type peptide (β-gal activity of mutant/wild type) to the putative target. For the YTH interaction assay mutants DR15PE (SEQ ID NO:2), DR15QI (SEQ ID NO:3), and DR15YM (SEQ ID NO:4) as well as originally identified DR15wt (SEQ ID NO:1), were used.
# [3] = tested on: endogenous α promoter (ST486 cells); experiment: TAQMAN assay of endogenous germline α promoter transcription in ST486 cells; assay type: cell-based; settings: ST486 cells stimulated with TGF-β 40 ng/ml; average of 3 values; p=0.7797
# Experimental: The assay was similar to that described in the immediately preceding section, except that ST486 cells (ATCC # CRL-1647) engineered to express the tetracycline-regulated transactivator were infected and the infected cells were stimulated with TGF-β (40 ng/ml; Peprotech). The primers and probe, which are specific for the transcription product driven by the ST486 endogenous α promoter, were as follows (the probe was labeled at the 5′-end with Fam and at the 3′-end with Tamra): […]
Sequence,functional category based on reporter ratio compared to DR15wt [1],binding to hTXNL in yeast two hybrid interaction assay [2],endogenous α inhibition ratio [3]
"AARCYMRMPPQSLADAQIYS (Peptide generated by a combinatorial library) [DR15PE, dual alanine mutant of DR15wt]",IOF (An increase of function mutant (IOF) shows a >50% increase in reporter ratio),found to bind,
"PERCAARMPPQSLADAQIYS (peptide generated from combinatorial library) [DR15YM, dual alanine mutant of DR15wt]",,found to bind,
"PERCYMRMPPQSLADAAAYS (peptide generated from combinatorial library) [DR15QI, dual alanine mutant of DR15wt]",,found to bind,
"PERCYMRMPPQSLADAQIYS (peptide generated from a combinatorial library) [DR15wt, 20-mer peptide from a random retroviral library, expressed as BFP-peptide fusion]",,found to bind,0.98
